Data taken from the supplement of paper PMC9112550, “Optimization of the antimicrobial peptide Bac7 by deep mutational scanning” (BMC Biology, 2022).

The sequences below were run on Escherichia coli TOP10 (assay: shrunken log2 fold change of peptide-encoding DNA abundance (4.5 h post-induction vs induction); higher = less antimicrobial activity (less host growth inhibition)). Conditions: time post-induction: 4.5 h; library: site-saturation at positions 5, 18, 19, 20.
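Also: peptides expressed intracellularly from a pBAD plasmid library in pooled LB shake-flask culture, induced with 0.3% L-arabinose, DNA abundance read by NGS, three biological replicates, DESeq2 with apeglm shrinkage.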

Row | Sequence | shrunken log2 fold change
1 | RRIRWRPPRLPRPRPRPNNIPRP | -0.779
2 | RRIRVRPPRLPRPRPRPWQWPRP | -0.0592
3 | RRIRVRPPRLPRPRPRPFYFPRP | -0.493
4 | RRIRQRPPRLPRPRPRPAFVPRP | -0.0399
5 | RRIRMRPPRLPRPRPRPCKFPRP | 0.12
6 | RRIRCRPPRLPRPRPRPMQHPRP | -0.173
7 | RRIRIRPPRLPRPRPRPTIGPRP | -0.396
8 | RRIRVRPPRLPRPRPRPTTRPRP | 0.293
9 | RRIRQRPPRLPRPRPRPMEHPRP | 0.0112
10 | RRIRFRPPRLPRPRPRPTGYPRP | 0.0801
11 | RRIRQRPPRLPRPRPRPTNGPRP | -0.0973
12 | RRIRNRPPRLPRPRPRPAMWPRP | -0.0838
13 | RRIRIRPPRLPRPRPRPFLYPRP | -0.84
14 | RRIRDRPPRLPRPRPRPRVGPRP | 0.972
15 | RRIRMRPPRLPRPRPRPNEKPRP | 0.0356
16 | RRIRYRPPRLPRPRPRPDFMPRP | -2.08
17 | RRIRPRPPRLPRPRPRPCFGPRP | 1.01
18 | RRIRNRPPRLPRPRPRPPFVPRP | 0.164
19 | RRIRQRPPRLPRPRPRPYIRPRP | -0.197
20 | RRIRDRPPRLPRPRPRPRVRPRP | 0.106
21 | RRIRSRPPRLPRPRPRPHIRPRP | -0.632
22 | RRIRRRPPRLPRPRPRPQAQPRP | 0.0393
23 | RRIRNRPPRLPRPRPRPFNGPRP | -0.0926

Row | Sequence | shrunken log2 fold change
24 | RRIRPRPPRLPRPRPRPFFKPRP | -0.0682
25 | RRIRHRPPRLPRPRPRPKTHPRP | -0.314
26 | RRIRFRPPRLPRPRPRPHQEPRP | -0.0079
27 | RRIRSRPPRLPRPRPRPCVGPRP | -0.0336
28 | RRIRPRPPRLPRPRPRPTDPPRP | 0.0787
29 | RRIRNRPPRLPRPRPRPRYAPRP | -0.0268
30 | RRIRHRPPRLPRPRPRPQSQPRP | -0.127
31 | RRIRQRPPRLPRPRPRPHIKPRP | -0.878
32 | RRIRWRPPRLPRPRPRPEKWPRP | 0.0948
33 | RRIRSRPPRLPRPRPRPPMNPRP | -0.347
34 | RRIRRRPPRLPRPRPRPACRPRP | 0.456
35 | RRIRPRPPRLPRPRPRPCRKPRP | -0.134
36 | RRIRMRPPRLPRPRPRPTRQPRP | 0.886
37 | RRIRGRPPRLPRPRPRPIMWPRP | 0.39
38 | RRIRKRPPRLPRPRPRPELGPRP | 0.823
39 | RRIRCRPPRLPRPRPRPYDDPRP | -0.396
40 | RRIRGRPPRLPRPRPRPELIPRP | 0.408
41 | RRIRPRPPRLPRPRPRPMGTPRP | 0.0218
42 | RRIRWRPPRLPRPRPRPGFCPRP | 0.524
43 | RRIRERPPRLPRPRPRPENMPRP | 0.000515
44 | RRIRMRPPRLPRPRPRPSGMPRP | 0.03
45 | RRIRWRPPRLPRPRPRPAPAPRP | 1.38
46 | RRIRKRPPRLPRPRPRPQAYPRP | -0.216

Row | Sequence | shrunken log2 fold change
47 | RRIRIRPPRLPRPRPRPMPGPRP | -0.172
48 | RRIRARPPRLPRPRPRPSRQPRP | 0.373
49 | RRIRPRPPRLPRPRPRPWVVPRP | 0.0434
50 | RRIRTRPPRLPRPRPRPCIHPRP | -0.11
51 | RRIRHRPPRLPRPRPRPSQCPRP | -0.325
52 | RRIRFRPPRLPRPRPRPCCHPRP | -0.415
53 | RRIRQRPPRLPRPRPRPSWWPRP | -0.176
54 | RRIRDRPPRLPRPRPRPGHNPRP | -0.0961
55 | RRIRSRPPRLPRPRPRPCPTPRP | -0.138
56 | RRIRFRPPRLPRPRPRPVMLPRP | -0.412
57 | RRIRSRPPRLPRPRPRPYDGPRP | -0.203
58 | RRIRCRPPRLPRPRPRPPNGPRP | -0.0741
59 | RRIRPRPPRLPRPRPRPYYLPRP | -0.745
60 | RRIRPRPPRLPRPRPRPPCWPRP | 0.468
61 | RRIRMRPPRLPRPRPRPDASPRP | 2.43
62 | RRIRPRPPRLPRPRPRPPNIPRP | -0.414
63 | RRIRVRPPRLPRPRPRPRGKPRP | 0.252
64 | RRIRIRPPRLPRPRPRPEVRPRP | -0.0584
65 | RRIRWRPPRLPRPRPRPCNLPRP | -0.161
66 | RRIRYRPPRLPRPRPRPQKIPRP | -0.524
67 | RRIRHRPPRLPRPRPRPATVPRP | 0.00308
68 | RRIRHRPPRLPRPRPRPERCPRP | -0.078
69 | RRIRCRPPRLPRPRPRPDRCPRP | 0.16

Row | Sequence | shrunken log2 fold change
70 | RRIRHRPPRLPRPRPRPHVDPRP | 0.0392
71 | RRIRKRPPRLPRPRPRPVRQPRP | -0.0361
72 | RRIRGRPPRLPRPRPRPVFWPRP | 0.768
73 | RRIRMRPPRLPRPRPRPMWHPRP | 0.208
74 | RRIRCRPPRLPRPRPRPGQAPRP | -0.0147
75 | RRIRDRPPRLPRPRPRPVRFPRP | 0.189
76 | RRIRTRPPRLPRPRPRPSVQPRP | -0.0749
77 | RRIRSRPPRLPRPRPRPGDLPRP | -0.091
78 | RRIRYRPPRLPRPRPRPPMKPRP | -0.137
79 | RRIRCRPPRLPRPRPRPEAAPRP | 1.11
80 | RRIRLRPPRLPRPRPRPPQPPRP | 0.816
81 | RRIRRRPPRLPRPRPRPTMIPRP | -0.195
82 | RRIRLRPPRLPRPRPRPHWMPRP | -0.0826
83 | RRIRIRPPRLPRPRPRPGQTPRP | 0.0693
84 | RRIRERPPRLPRPRPRPVEFPRP | -0.309
85 | RRIRNRPPRLPRPRPRPYIRPRP | 0.00719
86 | RRIRERPPRLPRPRPRPACGPRP | 0.14
87 | RRIRCRPPRLPRPRPRPKWAPRP | 0.0877
88 | RRIRIRPPRLPRPRPRPHWTPRP | 0.0591
89 | RRIRERPPRLPRPRPRPFFTPRP | -0.106
90 | RRIRGRPPRLPRPRPRPHRSPRP | 0.188
91 | RRIRVRPPRLPRPRPRPCQAPRP | -0.0137
